From PMC12635249
Several values for one entry are separate records, joined by “and”; a condition that tells them apart may be missing. Equal entries are not always repeated.

Target: PorKN heterodimer unit (P. gingivalis)
Assay: cryo-EM structure

Question: How did the stoichiometry N turn out when PorKN heterodimer unit (complex) was run?
Answer: Its stoichiometry N is 31 to 35 (2×) and 33.
